T1: 1:1 binary complex of the ectodomains of FGFR1c and Klotho (human; murine, UniProt O35082 35-982)
T1 construct: range 35-982; also called FGFR1c-Klotho complex; binary FGFR1c-Klotho complex; not shown: C-terminal FLAG tag
T1 sequence 1: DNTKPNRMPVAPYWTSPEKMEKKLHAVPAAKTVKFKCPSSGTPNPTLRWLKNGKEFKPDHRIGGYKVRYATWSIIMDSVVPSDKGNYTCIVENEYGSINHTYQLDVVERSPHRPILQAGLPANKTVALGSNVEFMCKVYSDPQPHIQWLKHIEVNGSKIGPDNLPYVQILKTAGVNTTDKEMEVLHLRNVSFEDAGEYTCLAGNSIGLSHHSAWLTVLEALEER
T1 sequence 2: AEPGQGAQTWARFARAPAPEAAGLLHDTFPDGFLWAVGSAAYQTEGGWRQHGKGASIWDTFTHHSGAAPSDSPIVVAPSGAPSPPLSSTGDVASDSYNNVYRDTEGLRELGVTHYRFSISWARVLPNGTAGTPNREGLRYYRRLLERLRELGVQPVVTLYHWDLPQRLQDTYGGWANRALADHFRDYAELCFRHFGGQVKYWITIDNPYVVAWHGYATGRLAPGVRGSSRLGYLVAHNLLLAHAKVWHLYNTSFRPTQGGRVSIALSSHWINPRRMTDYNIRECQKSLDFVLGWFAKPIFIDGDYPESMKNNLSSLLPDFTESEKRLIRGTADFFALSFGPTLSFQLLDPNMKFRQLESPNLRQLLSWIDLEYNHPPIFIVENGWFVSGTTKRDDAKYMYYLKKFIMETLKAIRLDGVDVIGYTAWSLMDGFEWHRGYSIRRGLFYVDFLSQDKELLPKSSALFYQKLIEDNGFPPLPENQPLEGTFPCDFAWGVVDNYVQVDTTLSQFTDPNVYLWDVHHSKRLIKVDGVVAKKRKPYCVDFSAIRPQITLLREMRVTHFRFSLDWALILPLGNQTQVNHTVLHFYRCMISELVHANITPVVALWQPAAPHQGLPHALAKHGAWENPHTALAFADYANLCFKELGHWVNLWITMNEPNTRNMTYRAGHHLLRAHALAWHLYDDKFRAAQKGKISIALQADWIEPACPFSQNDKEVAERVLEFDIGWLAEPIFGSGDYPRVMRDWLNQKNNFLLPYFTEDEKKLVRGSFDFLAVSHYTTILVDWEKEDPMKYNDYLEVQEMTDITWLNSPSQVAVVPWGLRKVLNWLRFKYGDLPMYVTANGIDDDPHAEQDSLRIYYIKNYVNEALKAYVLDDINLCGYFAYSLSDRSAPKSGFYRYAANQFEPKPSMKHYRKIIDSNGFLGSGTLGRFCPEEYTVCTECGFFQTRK


Molecular target: T1, 1:1 binary complex of the ectodomains …
Test: SPR competition; competitor FGF23^28-251 immobilized, fixed FGFR1c-Klotho complex
Method: Increasing concentrations of FGF23²⁸⁻²⁵¹ (0-50 nM) were mixed with a fixed concentration of 1:1 complex of the ectodomains of FGFR1c and Klotho (15 nM and 20 nM, respectively) in HBS-EP buffer, and the mixtures were passed over the FGF23 chip. In the other—reverse—assay, FGF23¹⁸⁰⁻²⁵¹ was immobilized on a chip (˜48.4 fmole/mm² of flow channel). Increasing concentrations of FGF23²⁸⁻²⁵¹ (0-50 nM) were mixed with a fixed concentration of 1:1 complex of the ectodomains of FGFR1c and Klotho (20 nM) in HBS-EP buffer, and the mixtures were passed over the chip. As a control, competition of FGF23 C-terminal tail peptide in solution with immobilized FGF23 C-terminal tail peptide for binding to the binary FGFR1c-Klotho complex was studied. Increasing concentrations of FGF23¹⁸⁰⁻²⁵¹ (0-400 nM) were mixed with a fixed concentration of 1:1 complex of the ectodomains of FGFR1c and Klotho (20 nM) in HBS-EP buffer, and the mixtures were passed over the FGF23¹⁸⁰⁻²⁵¹ chip.
To fully nail down that the C-terminal tail of FGF23 mediates FGF23 binding to the binary FGFR1c-Klotho complex, a fixed concentration of FGFR1c-Klotho was mixed with increasing concentrations of FGF23¹⁸⁰⁻²⁵¹, and the mixtures were passed over the FGF23 chip. Mixtures of FGF23²⁸⁻²⁵¹ with FGFR1c-Klotho were used as a control. […] Similar results were obtained using the “reverse” SPR assay format, where FGF23¹⁸⁰⁻²⁵¹ was immobilized on a chip and mixtures of a fixed concentration of FGFR1c-Klotho complex with increasing concentrations of FGF23²⁸⁻²⁵¹ were passed over the chip (FIG. 3E). Mixtures of FGF23¹⁸⁰⁻²⁵¹ with FGFR1c-Klotho were used as a control (FIG. 3F). To verify the specificity of the interaction between the FGF23 C-terminal tail and the FGFR1c-Klotho complex, the C-terminal tail peptide of FGF21 and FGFR1c-Klotho were mixed at molar ratios of 6:1 and 10:1, and the mixtures were injected over a FGF23 chip.

molar excess over FGFR1c-Klotho complex at half-maximum inhibition	Binder
5.7 fold molar excess	SAEDDSERDPLNVLKPRARMTPAPAS (Made by solid phase synthesis (GenScript)) [FGF23 C-terminal region peptide (S180 to S205), FGF23^180-205]
3.3 fold molar excess	N-terminally hexahistidine-tagged 72-amino acid C-terminal tail of human FGF23 (S180 to I251), FGF23^180-251 (Expressed in E. coli; also called FGF23 C-terminal tail peptide; C-terminal tail of FGF23; not shown: N-terminal hexahistidine tag (six His)) peptide: SAEDDSERDPLNVLKPRARMTPAPASCSQELPSAEDNSPMASDPLGVVRGGRVNTHAGGTGPEGCRPFAKFI

— patent publication US20130184211A1 (NEW YORK UNIVERSITY, published 2013)
